Results taken from patent publication US20230242615A1.

Molecular target: IL4Rα on TF1 cells (UniProt P24394)
Assay: cell-based or functional assay

B1: Dupilumab (antibody, INN chains, looked up, V domains shown)
VH: EVQLVESGGGLEQPGGSLRLSCAGSGFTFRDYAMTWVRQAPGKGLEWVSSISGSGGNTYYADSVKGRFTISRDNSKNTLYLQMNSLRAEDTAVYYCAKDRLSITIRPRYYGLDVWGQGTTVTVSS
VL: DIVMTQSPLSLPVTPGEPASISCRSSQSLLYSIGYNYLDWYLQKSGQSPQLLIYLGSNRASGVPDRFSGSGSGTDFTLKISRVEAEDVGFYYCMQALQTPYTFGQGTKLEIKR
B1 was tested, and the IC50 (nM) Blocking IL4, TF-1 cell proliferation was 3.1 nM, the IC50 (nM) Blocking IL13, TF-1 cell proliferation was 20.5 nM and the Relative activity (blocking IL4, against Dupilumab) was 1 fold. It also gave a Relative activity (blocking IL13, against Dupilumab) of 1 fold.
